According to US20230212235A1:

How the values were obtained:
GFP [GFP: P42212] [1] = assay: SPR, GFP immobilised, nanobody injected; equilibrium Kd
GFP [GFP: P42212] [2] = assay: SPR, GFP immobilised, nanobody injected; kinetic Kd
GFP [GFP: P42212] [3] = assay: SPR, GFP immobilised; order of magnitude told of all four nanobodies

Substance “GBN^WT (wild-type GFP-binding nanobody) (VHH)” has a Kd (GFP [GFP: P42212] [1]) of 233 nM, a Kd (GFP [GFP: P42212] [2]) of 18.9 nM and a koff (GFP [GFP: P42212] [3]) of 0.0001 s⁻¹. For the same substance, the kon (GFP [GFP: P42212] [3]) was 10000 M⁻¹ s⁻¹.
